Measured values: publication PMC4826903 (Science (New York, N.Y.), 2015)

Target: the molecule itself

B1: Nsp1•Nup49•Nup57 channel nup hetero-trimer (CNT) (complex, Chaetomium thermophilum)
chain 1: MDEIITRWATDLAKYQKEFKEQAAKVMEWDRLLVENGEKIQKLYTSTYEAERASNEIERQLSNVESQQEELTAWLDRYERELDELYAKQMGSAAGEQAAGPDQERERTYKLAEKLTDQLDEMGKDLAKMIKEINDMSNTLSKGSKPDDPLTQIVRVLNGHLAQLQWIDTNAAALQAKVAAAQKAAGSMGANVPGTETDAAESFYRSYR
chain 2: EALQQEIAKIDEEIQKCIRDKEAVDAFLPAHGEQLAAIPTDVNFVTRKSEGAHNALSSDILAIDQLRELVKQDADNARLSFKAIDNLKLPMQYHQAGLWSKQMGGAGTAGASGASADADGQSNADLISYFSKTADEMEEMMKKFEKTITEIEAHLTGVEAHAMAMQNVAAQSRNAAQGGVDERVYELAAVLREFEESILKVAGVVGGVKEGVTELQLRDFMGHGS
chain 3: YQKPIPEQIKLIVDKWNPNHPNCAFKTYLYNKVDEHTVPLYGPGPNEDPKEWEEALQRKPAPNFIPVLCSGFPSIVARLMLQRRVITEFNNKLHQINASLDAILSRHDLDHTVRAFNARRRHAELSRRCLHLAARVQVLRNRGYALSGDEDELKQKLQQIDKTLNDPAQGSRLEELWSRLIVLRGYAEDLKDQINQAGITESDGLGEEIEAKAKKILEDYDKQLQHLKKQVEEAKKDFEEWEKQHN
  stoichiometry N: 2
